From patent US20110165265A1, “TRAIL VARIANTS FOR TREATING CANCER” (FUNDACIÓ GENÒMICA (CRG), priority 2007, published 2011)

How the values were obtained:
[1] = 125I-TRAIL biodistribution in tumor-bearing mice; type: in vivo
Description: Radioiodination of TRAIL was performed with a TRAIL solution of 1 mg/ml in a pH 7.4 TRIS buffer, containing 100 μM zinc sulphate and 10% glycerol. 45 μg TRAIL and 50 μg chloramine T (Merck, Amsterdam, The Netherlands) were allowed to react with 70 MBq ^125I-NaI in 0.05 M NaOH (pH 9.0, GE Healthcare, Eindhoven, The Netherlands) during 3 min at pH 8.0. The labeling reaction was terminated with sodium metabisulfite (Acros Organics, Geel, Belgium). Non-bound ^1251 was removed by gel filtration chromatography. The PD-10 column (Sephadex™ G-25M, Amersham Biosciences AB, Uppsala, Sweden) was eluted with TRIS buffer, containing 100 μM zinc sulphate, 10% glycerol and 0.5% human serum albumin. Nude mice with IP A2780-Luc xenografts were prepared, as described above.
The in vivo biodistribution study was conducted in 50 mice after establishment of A2780-Luc IP xenografts. ^125I-TRAIL (0.15 ml; 150 kBq, 0.5 μg) was administered IV through retro-orbital injection in 25 mice, and IP in 25 mice. At five time points after injection (t=15, 30, 60, 90 and 360 min) groups of 5 mice were sacrificed and organs and tissues were excised, rinsed for residual blood and weighed. Tumor tissue was additionally fixed in 10% buffered formalin for histological assessment. Samples were counted for radioactivity in a calibrated well-type LKB-1282-CompuGamma counter. Tissue activity was expressed as percentage of the injected dose/g tissue (% ID/g). Tumor-to- blood and tumor-to-muscle ratios were also calculated. All data were corrected for physical decay and compared with a known standard sample. Pharmacokinetic parameters were derived using the KINFIT module of the MW/PHARM computer program package (version 3.50, MediWare, Groningen, The Netherlands). Clearance rates of ^125I-TRAIL from the circulation were calculated using non-linear regression analysis.

TRAIL R1, R2, R3 and R4 = assay: TRAIL receptor membrane expression by flow cytometry; type: cell-based
Description: Analysis of TRAIL-receptor membrane expression was performed by FACS analysis as described previously^35. For death receptor expression after cisplatin exposure, cells were exposed for 4 h, washed with PBS and incubated for 20 h in regular culture medium, after which FACS analysis was performed. Cells were subsequently washed twice with cold PBS containing 2% FCS and 0.1% sodium azide and incubated with phycoerythrin (PE)-conjugated mouse monoclonal antibodies against DR4, DR5, DcR1 and DcR2. Mouse PE-labeled IgG1 and IgG2B were used as isotype controls. All PE-labeled antibodies were purchased from R&D systems (Oxon, UK). Membrane receptor expression was analyzed with Winlist and Winlist 32 software (Verity Software House, Inc., Topsham, Me.) and is shown as mean fluorescent intensity (MFI) of all analyzed cells.
In order to determine the cell surface expression of each of the TRAIL receptors on A2780 carcinoma cells, cells were washed twice in PBS containing 1% BSA and then incubated with monoclonal antibodies to DR4, DR5, DcR1 or DcR2 (Alexis) for 40 min. After two wash steps with PBS/BSA, anti-mouse IgG-FITC (Sigma) secondary antibody was added for 30 min. All incubations were carried out on ice. Negative controls contained isotype control antibody. Cells were analyzed by a FacsCalibur flow cytometer.

p53 = p53 protein expression in cervical cancer cell lines; type: cell-based
Description: All three cervical cancer cell lines were treated with increasing concentration of Bortezomib to assess expression of p53 protein.

Colo205 tumors = Colo205 tumors in athymic nude mice; type: in vivo; conditions: 40 and 200 mg/kg, 2×5 days
A2780-Luc xenografts = assay: IP A2780-Luc xenografts, bioluminescence imaging
Description: Visualization of response to TRAIL, TRAIL-DR5, cisplatin and to the combination of either ligand with cisplatin by means of bioluminescence imaging. Nude mice were inoculated IP with 2×10^6 A2780-Luc cells. After 5 days treatment was initiated; cisplatin (4 mg/kg IP) or vehicle at day 5 and 12, TRAIL, TRAIL-DR5 (5 mg/kg IP) or vehicle at day 5-10 and 12-16, or a combination of TRAIL or TRAIL-DR5 with cisplatin.
Female nude mice (Hsd:Athymic Nude-nu) were obtained from Harlan Nederland (Horst, The Netherlands) at 6-8 weeks of age (˜21 g). Inoculation was performed after 10 days of acclimatization.
Imaging was conducted with the IVIS 100 series (Xenogen Corporation Alameda, Calif.), composed of a cooled charge-coupled device camera connected to a light tight black chamber. Before in vivo imaging animals were anesthetized with 4% isoflurane and injected IP with D-luciferin (150 mg/kg, Xenogen) reconstituted in sterile PBS. Mice were placed in prone position on a warmed stage (37° C.) in the imaging chamber, and grayscale reference images were obtained under dim illumination. Pseudocolor images representing bioluminescent intensity were acquired with Livinglmage software (version 2.50, Xenogen) 10 and 15 min after D-luciferin injection in complete darkness. These images were superimposed on the grayscale images for analysis with Igor Pro software (version 4.09, WaveMetrics, Lake Oswego, Oreg.). All bioluminescence imaging (BLI) data are depicted in radiance units (photons/sec/cm^2/sr) enabling absolute comparisons between bioluminescent images and represent final data obtained after subtraction of the background signal.

A2780 cells = assay: Microculture tetrazolium cytotoxicity assay in A2780; type: cell-based, human; conditions: A2780, 4 h pre-incubation; read-out: inhibitory concentration 20% (IC20)
Description: The microculture tetrazolium assay, performed as described earlier^36, was used to measure cytotoxicity. […] In cell viability assays assessing combination treatment with cisplatin, the cells were pre-incubated for 4 h (h) with 2.5 μM cisplatin (inhibitory concentration 20%-IC20), before addition of 0-25 ng/ml TRAIL or TRAIL-DR5.

[2] = Colo205, 5 mM Aspirin or 10 μM 5-Flurouracil, 24 h
[3] = Lovo, 2.5 mM Aspirin or 10 μM 5-Flurouracil, 24 h
[4] = SW948, 2.5 mM Aspirin or 10 μM 5-Flurouracil, 24 h

Compound: 125I-TRAIL: radioiodinated TRAIL
- cleaved caspase-3 staining in tumor tissue ([1]; 15 min after injection): almost no cleaved caspase-3 was detected
- cleaved caspase-3 staining in tumor tissue ([1]; 360 min after injection): increased cleaved caspase-3 staining
- blood activity ([1]; IP, 15 min): 25.30±5.04 % ID/g
- kidney uptake ([1]; IP, 15 min): 19.83±1.38 % ID/g
- tumor activity ([1]; IP, 15 min): 11.31±1.51
- tumor to blood ratio ([1]; IP, 15 min): 0.48±0.03
- blood activity ([1]; IP, 30 min): 15.33±3.78 % ID/g
- kidney uptake ([1]; IP, 30 min): 21.45±1.90 % ID/g
- tumor activity ([1]; IP, 60 min): 12.91±3.29
- tumor to blood ratio ([1]; IP, 60 min): 0.55±0.06
- blood activity ([1]; IP, 90 min): 23.74±6.85 % ID/g
- kidney uptake ([1]; IP, 90 min): 17.87±1.28 % ID/g
- blood activity ([1]; IP, 360 min): 8.26±1.74 % ID/g
- kidney uptake ([1]; IP, 360 min): 4.45±0.31 % ID/g
- blood activity ([1]; IV, 15 min): 43.29±11.04 % ID/g
- kidney uptake ([1]; IV, 15 min): 199.2±40.69 % ID/g
- tumor to blood ratio ([1]; IV, 15 min): 0.13±0.02
- blood activity ([1]; IV, 30 min): 30.51±12.40 % ID/g
- kidney uptake ([1]; IV, 30 min): 126.6±49.68 % ID/g
- tumor to blood ratio ([1]; IV, 60 min): 0.38±0.04
- tumor activity ([1]; IV, 60 min (maximum)): 6.85±1.29
- blood activity ([1]; IV, 90 min): 7.52±1.22 % ID/g
- kidney uptake ([1]; IV, 90 min): 12.73±2.47 % ID/g
- blood activity ([1]; IV, 360 min): 2.63±0.56 % ID/g
- kidney uptake ([1]; IV, 360 min): 2.06±0.56 % ID/g

Compound: O=c1[nH]cc(F)c(=O)[nH]1 [5-Flurouracil]
- TRAIL receptor expression (TRAIL R1, R2, R3 and R4; [2]): induction of all TRAIL receptors
- TRAIL receptor expression (TRAIL R1, R2, R3 and R4; [3]): induction of TRAIL R2, R3 and R4 receptors
- TRAIL receptor expression (TRAIL R1, R2, R3 and R4; [4]): did not lead to any induction of the TRAIL receptors

Compound: CC(C)C[C@H](NC(=O)[C@H](Cc1ccccc1)NC(=O)c1cnccn1)B(O)O [Bortezomib]
- TRAIL receptor expression (TRAIL R1, R2, R3 and R4; Caski, 5 nM, 24 h): increased receptor expression of TRAIL R2 and slight increase of TRAIL R3
- TRAIL receptor expression (TRAIL R1, R2, R3 and R4; Hela, 10 nM, 24 h): increases receptor expression of all TRAIL receptors
- TRAIL receptor expression (TRAIL R1, R2, R3 and R4; SIHA, 10 nM, 24 h): increases receptor expression of all TRAIL receptors
- induction of p53 protein (p53; Caski): can be seen at concentrations of 1 nM with largest induction seen at 5 and 10 nM
- induction of p53 protein (p53; HELA): seen also at 5 and 10 nM, though relatively smaller
- induction of p53 protein (p53; SiHa): can be seen at 5 and 10 nM

Compound: CC(=O)Oc1ccccc1C(=O)O [aspirin]
- effect on tumor growth, aspirin alone (Colo205 tumors): no difference in effect
- side effects (Colo205 tumors): no side effects were found
- TRAIL receptor expression (TRAIL R1, R2, R3 and R4; [2]): induction TRAIL R2, R3 and R4 receptor expression
- TRAIL receptor expression (TRAIL R1, R2, R3 and R4; [3]): induction TRAIL R4 and to a lesser extent TRAIL R2 receptor expression
- TRAIL receptor expression (TRAIL R1, R2, R3 and R4; [4]): induction TRAIL-R2 expression only

Compound: N.N.[Cl][Pt][Cl] [cisplatin, cis-diamminedichloroplatinum (II), reference compound]
- TRAIL receptor expression (TRAIL R1, R2, R3 and R4; A2780): dose dependent upregulation of DR5 and DcR2 expression
- mean signal reduction as to vehicle treated mice (A2780-Luc xenografts; day 16, IP treatment): 72.3%
- light emission (bioluminescent signal) (A2780-Luc xenografts; day 16, mean±SEM): 1.3×10^8±2.4×10^7 radiance units
- median survival (A2780-Luc xenografts; surrogate endpoint signal ≧3.1×10^8): 28 days
- IC20 (A2780 cells): 2.5 µM
